Assay results taken from US20260209376A1 (University of California, published 2026).

Target: TfR1 (antigen; form in the assay not stated) (human, UniProt P02786 89-760, limits assumed)
Test: assay not named in the sentence (ELISA and flow cytometry per paragraph 218)

Sequence of TfR1 (antigen; form in the assay not stated) (P02786 89-760 limits assumed): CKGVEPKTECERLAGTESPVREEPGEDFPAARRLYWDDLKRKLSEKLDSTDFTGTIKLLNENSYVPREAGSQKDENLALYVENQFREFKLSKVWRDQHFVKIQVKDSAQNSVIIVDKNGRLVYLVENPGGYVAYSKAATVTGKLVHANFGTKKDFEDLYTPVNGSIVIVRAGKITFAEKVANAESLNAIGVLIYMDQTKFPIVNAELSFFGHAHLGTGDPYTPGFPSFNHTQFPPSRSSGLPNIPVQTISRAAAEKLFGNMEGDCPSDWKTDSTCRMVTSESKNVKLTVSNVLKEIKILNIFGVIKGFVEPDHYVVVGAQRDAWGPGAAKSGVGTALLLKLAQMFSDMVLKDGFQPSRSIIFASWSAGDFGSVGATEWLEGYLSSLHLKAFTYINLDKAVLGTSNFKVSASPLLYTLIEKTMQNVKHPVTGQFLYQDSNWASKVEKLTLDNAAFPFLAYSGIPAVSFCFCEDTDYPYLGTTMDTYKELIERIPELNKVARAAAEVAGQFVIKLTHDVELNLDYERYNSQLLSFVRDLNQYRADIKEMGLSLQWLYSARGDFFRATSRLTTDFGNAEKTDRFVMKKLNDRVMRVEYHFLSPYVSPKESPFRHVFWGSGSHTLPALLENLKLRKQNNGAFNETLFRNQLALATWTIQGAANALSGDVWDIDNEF

Row | Binder | binding result
1 | H8L1 (antibody, human IgG1, V domains shown, humanized; also called hu128.1) VH: QVQLVESGGGVVQPGRSLRLSCAASGYSFTGYTMNWVRQAPGNGLEWVARINPHNGGTDYNQKFKDRFTISRDNSKNTLYLQMNSLRAEDTAVYYCARGYYYYSLDYWGQGTTVTVSS VL: EIVLTQSPATLSLSPGERATLSCSASSSIRYIHWYQQKPGQAPRLLIYDTSNLASGTPARFSGSGSGTDFTLTISSLEPEDFAVYYCHQRNSYPWTFGQGTKVEIK | no binding
2 | H8L3 (antibody, human IgG1, V domains shown, humanized; also called hu128.1) VH: QVQLVESGGGVVQPGRSLRLSCAASGYSFTGYTMNWVRQAPGNGLEWVARINPHNGGTDYNQKFKDRFTISRDNSKNTLYLQMNSLRAEDTAVYYCARGYYYYSLDYWGQGTTVTVSS VL: EIVLTQSPDFQSVTPKEKVTITCSASSSIRYIHWYQQRPDQSPKLLIYDTSNLASGVPSRFSGSGSGTDFTLTINSLEAEDAATYYCHQRNSYPWTFGQGTKVEIK | no binding
3 | H8L2 (antibody, human IgG1, V domains shown, humanized; also called hu128.1) VH: QVQLVESGGGVVQPGRSLRLSCAASGYSFTGYTMNWVRQAPGNGLEWVARINPHNGGTDYNQKFKDRFTISRDNSKNTLYLQMNSLRAEDTAVYYCARGYYYYSLDYWGQGTTVTVSS VL: EIVLTQSPATLSVSPGERATLSCSASSSIRYIHWYQQRPGQAPRLLIYDTSNLASGTPARFSGSGSGTDFTLTISSLEPEDFAVYYCHQRNSYPWTFGQGTKVEIK | no binding
4 | H8L4 (antibody, human IgG1, V domains shown, humanized; also called hu128.1) VH: QVQLVESGGGVVQPGRSLRLSCAASGYSFTGYTMNWVRQAPGNGLEWVARINPHNGGTDYNQKFKDRFTISRDNSKNTLYLQMNSLRAEDTAVYYCARGYYYYSLDYWGQGTTVTVSS VL: EIVLTQSPATLSVSPGERATLSCSASSSIRYIHWYQQRPGQAPRLLIYDTSNLASGIPARFSGSGSGTDFTLTISSLEPEDFAVYYCHQRNSYPWTFGPGTKVDIK | no binding
